The supplement of paper PMC9732359
± gives the uncertainty stated by the source.

Test: protein stability index of a GFP-peptide fusion (yeast GPS) (PSI 1-4); higher = more stable; sorted into four equal gates, so the index is relative within each strain
In short: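 Plasmids in a pooled yeast library fused tiled 17-residue yeast protein peptides downstream of GFP and also expressed Cherry. Mid-log cultures grown without leucine were sorted into four equal gates by GFP/Cherry fluorescence ratio. Each gate's plasmids were PCR-amplified and Illumina-sequenced, and reads were matched to strains by barcodes. The protein stability index is derived by multiplying each gate's read frequency by its gate number and summing the results.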

Row | Sequence | protein stability index (doa10∆) | protein stability index (pdr5∆) | protein stability index (san1∆) | protein stability index (ubr1∆)
1 | VNYLISNTMYSVRLFSF [YJL039C/NUP192] | 1.43 ± 0.046 | 1.42 ± 0.058 | 1.34 ± 0.088 | 1.6 ± 0.056
2 | GGNFKDLSTLVHSSSPS [GAL11] | 1.48 ± 0.056 | 1.46 ± 0.045 | 1.59 ± 0.089 | 1.38 ± 0.059
3 | RQFSNEEVNRCYLRWQH [SNF2] | 2.83 ± 0.081 | 2.78 ± 0.08 | 2.95 ± 0.086 | 3.01 ± 0.071
4 | GNIQISEYNFLEGSVSL [DIS3] | 2.74 ± 0.097 | 3.08 ± 0.091 | 3.05 ± 0.09 | 2.89 ± 0.072
5 | VHTANFSERGSNTRTMT [MED2] | 3.37 ± 0.3 | 3.35 ± 0.26 | 3.08 ± 0.14 | 3.26 ± 0.22
6 | DWEKYKAPLEDDDKKPD [RPT1] | 3.16 ± 0.12 | 3.56 ± 0.19 | 2.96 ± 0.21 | 3.31 ± 0.16
7 | DRSASRAVFLFRCKETH [RPC82] | 1.77 ± 0.084 | 3.07 ± 0.15 | – | 3.02 ± 0.17
8 | KTNFQDVILDYQTKKFY [REC8] | 1.62 ± 0.072 | 1.59 ± 0.051 | 1.16 ± 0.096 | 1.24 ± 0.039
9 | KDILVKTGITKKDEDEE [PRE9] | 3.37 ± 0.09 | 3.27 ± 0.087 | 2.58 ± 0.23 | 3.17 ± 0.14
10 | NELTDAIALAVRLGEED [RPN1] | 2.98 ± 0.096 | 3.27 ± 0.096 | – | 2.7 ± 0.095
11 | NSCFSDGSQQNLQQDKT [REC8] | 2.77 ± 0.09 | 2.76 ± 0.13 | 2.18 ± 0.2 | 2.88 ± 0.059
12 | PFDDDEPPLSYEQHIEN [PRP8] | 2.42 ± 0.058 | 2.86 ± 0.092 | 3.06 ± 0.07 | 2.31 ± 0.053
13 | YATKRQEAIQQNRRLAF [PRP8] | 2.43 ± 0.11 | 2.43 ± 0.12 | 2.62 ± 0.25 | 2.61 ± 0.067
14 | TLESLENLVVADLESFA [COR1] | 2.47 ± 0.066 | 2.67 ± 0.063 | 2.44 ± 0.065 | 2.3 ± 0.043
15 | NTRKNMSISLESSKALA [DIS3] | 1.96 ± 0.082 | 2.24 ± 0.1 | 1.96 ± 0.13 | 2.08 ± 0.078
16 | KVPDSTYDMVGGLTKQI [RPT6] | 2.27 ± 0.15 | 2.63 ± 0.17 | 1.93 ± 0.22 | 2.57 ± 0.077
17 | CELLKLTNEDPPGLMYL [SSN2] | 2.85 ± 0.18 | 3.06 ± 0.19 | 3.26 ± 0.12 | 3.36 ± 0.11
18 | QQAQSFVGKKNTIGSVH [SSN3] | 3.14 ± 0.1 | 3.12 ± 0.12 | 3.1 ± 0.081 | 2.98 ± 0.097
19 | KEALQNNIFKEFTSKIG [SMC1] | 2.22 ± 0.064 | 2.3 ± 0.082 | 2.52 ± 0.11 | 2.24 ± 0.073
20 | WLEQFLSCVKNDTISED [NUT1] | 1.73 ± 0.046 | 1.51 ± 0.04 | 1.36 ± 0.059 | 1.54 ± 0.035
21 | SFTLLNQLSQTNKLLFK [NUT1] | 2.81 ± 0.09 | 2.35 ± 0.055 | 2.71 ± 0.077 | 2.33 ± 0.057
22 | TETEVEREQPQENKNID [SRB4] | 3.42 ± 0.1 | 3.41 ± 0.091 | 3.07 ± 0.068 | 3.62 ± 0.089
23 | ITLRTSGELLQGIVRVY [MCD1] | 2.96 ± 0.075 | 2.9 ± 0.063 | 2.48 ± 0.066 | 3.12 ± 0.057
24 | DQLEDLREHFKNTEEGK [QCR6] | 2.75 ± 0.27 | 3.51 ± 0.14 | 3.36 ± 0.072 | –
25 | NNQSKEKADYEDEMMHE [RPN12] | 2.63 ± 0.074 | 2.7 ± 0.06 | 2.67 ± 0.095 | 2.53 ± 0.052
26 | GILYMGQGEQVDDVLET [RPN1] | 1.23 ± 0.16 | 1.19 ± 0.15 | 1.07 ± 0.18 | 1.23 ± 0.11

Row | Sequence | protein stability index (doa10∆) | protein stability index (pdr5∆) | protein stability index (san1∆) | protein stability index (ubr1∆)
27 | RNEVLESMDFLVLADAF [YCS4] | 2.04 ± 0.048 | 2.31 ± 0.086 | 2.43 ± 0.092 | 2.72 ± 0.048
28 | VNGSITDQLIQNIETRQ [NUT1] | 3.22 ± 0.079 | 3.01 ± 0.092 | 3.05 ± 0.071 | 3.15 ± 0.042
29 | EKRATSPLLESDSIEKI [PUP2] | 3.12 ± 0.087 | 3.07 ± 0.077 | 3.29 ± 0.09 | 3.23 ± 0.068
30 | CILRFLQLPIEDKFLYG [SWI3] | 1.85 ± 0.07 | 1.72 ± 0.085 | 1.18 ± 0.19 | 1.18 ± 0.077
31 | EGTRNRFSYSPPKEGNY [YMR129W/POM152] | 3.19 ± 0.13 | 3.06 ± 0.062 | 2.88 ± 0.043 | 3.13 ± 0.042
32 | ILNDIETLEHNPVALEQ [BRR2] | 2.95 ± 0.08 | 3.25 ± 0.1 | 3.18 ± 0.079 | 3.13 ± 0.077
33 | VDENDEVLLAGFGRKGK [RPS23A] | 1.08 ± 0.084 | 1.41 ± 0.076 | 1.15 ± 0.11 | 1.24 ± 0.068
34 | DNKINEIKLLEISCKQW [CSI1] | 2.54 ± 0.18 | 2.43 ± 0.17 | 2.17 ± 0.12 | 2.45 ± 0.12
35 | EDDEFEDFPIDTWANGE [SEM1] | 3.32 ± 0.098 | 3.26 ± 0.11 | 2.85 ± 0.11 | 3.03 ± 0.078
36 | LFQNVPEQGEEPMKQLN [YAR002W/NUP60] | 3.62 ± 0.15 | 3.32 ± 0.16 | 3.51 ± 0.12 | 3.17 ± 0.12
37 | QQLVDSEKRLDHFIHLR [SNF12] | 2.3 ± 0.12 | 2.75 ± 0.07 | 2.56 ± 0.078 | 2.68 ± 0.076
38 | PQRLTVLRLATNKGPLA [MCD1] | 2.78 ± 0.099 | 2.39 ± 0.073 | 2.8 ± 0.074 | 2.42 ± 0.074
39 | PKSKSLPNEMSQNDGFV [RPO31] | 3 ± 0.2 | 3.14 ± 0.14 | 3.38 ± 0.12 | 3.36 ± 0.11
40 | LQVADKFFRVKYENKIS [SMC3] | 2.14 ± 0.073 | 2.3 ± 0.05 | 1.67 ± 0.092 | 1.52 ± 0.03
41 | VICSVTGPIEPKARQEL [RRP46] | 2.79 ± 0.081 | 3.06 ± 0.11 | 2.75 ± 0.051 | 2.88 ± 0.054
42 | EEDYNEFNSIDRVIFRV [PRP8] | 3.27 ± 0.1 | 3.17 ± 0.11 | 3.02 ± 0.19 | 2.94 ± 0.068
43 | SLFHTAVSVANGFMHAG [RPN2] | 1.18 ± 0.087 | 1.51 ± 0.077 | 1.29 ± 0.25 | 1.57 ± 0.13
44 | IPDMSKNVELGWKPLRY [SNU114] | 3.29 ± 0.24 | 3.23 ± 0.23 | 2.58 ± 0.23 | 3.22 ± 0.15
45 | FRYITTWENEFLDSQRV [PRP8] | 2.77 ± 0.065 | 2.69 ± 0.059 | 2.48 ± 0.061 | 3.03 ± 0.046
46 | NDPEILKKIASIPNLFP [SWI1] | 2.36 ± 0.049 | 2.19 ± 0.036 | 2.36 ± 0.058 | 2.53 ± 0.035
47 | PLIMATCGSKGSTLNVS [RPO31] | 2.84 ± 0.12 | 2.05 ± 0.074 | 2.54 ± 0.1 | 2.23 ± 0.069
48 | GVANTDTAGEESQQQDE [SWI3] | 3.45 ± 0.1 | 3.55 ± 0.085 | 3.33 ± 0.062 | 3.43 ± 0.086
49 | LQPIFKGEEAKLDSKKT [SSN3] | 3.52 ± 0.2 | 3.11 ± 0.23 | 3.54 ± 0.17 | –
50 | PQGFSSVERGRKRAHSL [REC8] | 3.38 ± 0.11 | 3.4 ± 0.12 | 3.36 ± 0.048 | 3.19 ± 0.067
51 | ILLSHHRASPADVSIKS [POP5] | 2.79 ± 0.24 | 3.4 ± 0.18 | 3.24 ± 0.062 | –
